The values that follow come from patent US20220213181A1 (Novartis, published 2022).

Values joined by “and” are separate entries in the source; they are usually repeats but may differ in a detail not shown here. Equal values may be shown once. Bounds are passed on as bounds.

Common to all, as to experiment: Octet (ForteBio) kinetics, biotinylated antigen on streptavidin sensor, IgG in solution
(In general: BLI is a label-free optical method that tracks binding on a fibre tip over time.)

The target in experiment [1] is T1, Human ANGPTL4(26-406)-FLAG-His6-Avi (human, UniProt Q9BY76 24-406, biotin on the C-terminal Avi tag (BirA) where the protein is immobilised).
T1 construct: the text calls it 20 amino acids), then QP, ANGPTL4 26-406 and FLAG-His6-Avi; the signal peptide is left out here; also called full length human ANGPTL4; hANGPTL4
T1 sequence: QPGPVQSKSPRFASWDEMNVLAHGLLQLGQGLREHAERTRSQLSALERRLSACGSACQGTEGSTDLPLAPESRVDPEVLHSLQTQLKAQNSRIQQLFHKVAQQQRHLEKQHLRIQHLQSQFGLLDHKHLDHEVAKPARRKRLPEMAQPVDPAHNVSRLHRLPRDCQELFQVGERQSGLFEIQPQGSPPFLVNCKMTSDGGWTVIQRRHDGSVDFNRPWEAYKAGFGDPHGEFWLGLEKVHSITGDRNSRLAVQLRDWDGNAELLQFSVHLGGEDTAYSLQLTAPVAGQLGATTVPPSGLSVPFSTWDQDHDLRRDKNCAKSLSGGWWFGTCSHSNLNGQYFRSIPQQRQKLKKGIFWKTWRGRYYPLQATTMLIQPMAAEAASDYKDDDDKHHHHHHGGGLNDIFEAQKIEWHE

Experiment [2] deals with T2, Human ANGPTL4(26-161)-FLAG-His6-Avi (human, biotin on the C-terminal Avi tag (BirA) where the protein is immobilised).
T2 construct: also called human ANGPTL4 N-terminal coiled coil domain; hANGPTL4-CCD
T2 chain: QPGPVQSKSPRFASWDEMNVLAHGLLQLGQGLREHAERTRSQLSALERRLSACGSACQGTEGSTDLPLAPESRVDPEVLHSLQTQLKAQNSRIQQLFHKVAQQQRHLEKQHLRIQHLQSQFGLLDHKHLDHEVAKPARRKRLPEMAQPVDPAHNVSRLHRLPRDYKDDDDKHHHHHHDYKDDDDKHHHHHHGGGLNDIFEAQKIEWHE

Experiment [3] addresses T3, Cynomolgus monkey ANGPTL4(26-406)-FLAG-His6-Avi (cynomolgus monkey, biotin on the C-terminal Avi tag (BirA) where the protein is immobilised).
T3 construct: also called Cyno ANGPTL4 (26-406)
T3 chain: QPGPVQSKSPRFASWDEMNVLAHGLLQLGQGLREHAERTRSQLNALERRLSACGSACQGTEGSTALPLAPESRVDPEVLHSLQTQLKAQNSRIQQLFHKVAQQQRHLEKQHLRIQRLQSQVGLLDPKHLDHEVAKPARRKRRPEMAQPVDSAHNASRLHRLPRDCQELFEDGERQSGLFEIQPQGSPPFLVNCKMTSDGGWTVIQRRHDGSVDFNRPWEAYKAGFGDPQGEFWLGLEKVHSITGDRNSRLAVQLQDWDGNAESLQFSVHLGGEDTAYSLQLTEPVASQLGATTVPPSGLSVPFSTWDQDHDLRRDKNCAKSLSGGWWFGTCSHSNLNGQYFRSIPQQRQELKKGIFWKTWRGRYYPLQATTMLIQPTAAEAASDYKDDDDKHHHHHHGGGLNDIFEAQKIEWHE

Experiment [4] concerns the target T4, Cynomolgus monkey ANGPTL4(26-161)-FLAG-His6-Avi (cynomolgus monkey, biotin on the C-terminal Avi tag (BirA) where the protein is immobilised).
T4 construct: also called Cyno ANGPTL4 (26-161)
T4 chain: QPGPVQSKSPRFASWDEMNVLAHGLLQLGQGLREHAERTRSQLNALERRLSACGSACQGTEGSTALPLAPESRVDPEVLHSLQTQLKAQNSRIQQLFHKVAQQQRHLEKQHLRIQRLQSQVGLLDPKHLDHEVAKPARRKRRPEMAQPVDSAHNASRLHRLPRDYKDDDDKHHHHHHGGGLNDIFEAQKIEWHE

Experiment [5] deals with T5, Rat ANGPTL4(24-405)-FLAG-His6-Avi (rat, UniProt Q6TMA8 24-405, biotin on the C-terminal Avi tag (BirA) where the protein is immobilised).
T5 sequence: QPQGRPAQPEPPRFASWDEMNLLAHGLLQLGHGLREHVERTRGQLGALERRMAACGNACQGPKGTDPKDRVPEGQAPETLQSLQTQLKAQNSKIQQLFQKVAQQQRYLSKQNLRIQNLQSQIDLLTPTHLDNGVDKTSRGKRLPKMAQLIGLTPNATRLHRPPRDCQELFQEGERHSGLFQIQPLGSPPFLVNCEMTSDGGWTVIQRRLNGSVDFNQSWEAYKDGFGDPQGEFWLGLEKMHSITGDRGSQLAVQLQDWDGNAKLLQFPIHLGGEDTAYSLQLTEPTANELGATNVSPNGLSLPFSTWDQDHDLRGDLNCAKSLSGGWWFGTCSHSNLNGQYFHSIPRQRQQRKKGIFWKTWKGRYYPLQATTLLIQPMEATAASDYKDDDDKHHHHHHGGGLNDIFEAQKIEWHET

Experiment [6] addresses T6, Mouse ANGPTL4(26-410)-FLAG-His6-Avi (mouse, UniProt Q9Z1P8 24-410, biotin on the C-terminal Avi tag (BirA) where the protein is immobilised).
T6 sequence: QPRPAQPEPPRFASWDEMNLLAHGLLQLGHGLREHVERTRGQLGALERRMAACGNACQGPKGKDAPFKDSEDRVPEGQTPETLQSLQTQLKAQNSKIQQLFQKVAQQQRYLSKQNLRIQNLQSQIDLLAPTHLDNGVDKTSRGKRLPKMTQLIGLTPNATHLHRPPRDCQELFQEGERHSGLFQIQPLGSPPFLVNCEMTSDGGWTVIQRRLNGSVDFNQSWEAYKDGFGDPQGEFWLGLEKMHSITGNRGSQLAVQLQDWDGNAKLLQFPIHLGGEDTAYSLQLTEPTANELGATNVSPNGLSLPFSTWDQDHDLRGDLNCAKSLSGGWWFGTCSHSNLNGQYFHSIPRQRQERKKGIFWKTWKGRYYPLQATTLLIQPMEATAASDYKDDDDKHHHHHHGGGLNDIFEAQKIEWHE

B1: NEG276-LALA (antibody, human IgG1, kappa, L234A L235A)
heavy: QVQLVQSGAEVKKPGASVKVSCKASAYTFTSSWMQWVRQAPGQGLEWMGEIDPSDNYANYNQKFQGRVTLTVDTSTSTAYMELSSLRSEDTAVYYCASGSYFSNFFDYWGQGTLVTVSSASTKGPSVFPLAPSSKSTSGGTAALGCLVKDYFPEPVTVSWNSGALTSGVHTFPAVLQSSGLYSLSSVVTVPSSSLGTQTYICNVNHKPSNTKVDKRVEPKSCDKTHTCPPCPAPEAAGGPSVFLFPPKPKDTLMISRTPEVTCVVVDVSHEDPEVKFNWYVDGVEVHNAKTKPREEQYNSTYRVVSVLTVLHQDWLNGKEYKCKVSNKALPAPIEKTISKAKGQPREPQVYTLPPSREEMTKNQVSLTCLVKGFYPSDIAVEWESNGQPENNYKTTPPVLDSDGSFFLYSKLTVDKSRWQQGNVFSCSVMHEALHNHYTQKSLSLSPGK
light: EIVMTQSPATLSVSPGERATLSCKASQDIGSNLNWLQQKPGQAPRRLIYAVSNRGPGIPARFSGSRSGSEYTLTISSLQSEDFAVYYCLQYASSPWTFGQGTKVEIKRTVAAPSVFIFPPSDEQLKSGTASVVCLLNNFYPREAKVQWKVDNALQSGNSQESVTEQDSKDSTYSLSSTLTLSKADYEKHKVYACEVTHQGLSSPVTKSFNRGEC
In the case of B1, the Kd was 0.014 nM and 0.017 nM and ≤ 0.012 nM and 0.01 nM in experiment [1]; ≤ 0.023 nM and 0.052 nM in experiment [2]; 0.015 nM and ≤ 0.014 nM in experiment [3]; 6.03 nM in experiment [5]; 4.15 nM in experiment [6]. For the same molecule, the koff was 5.9e-06 s⁻¹ and 6e-06 s⁻¹ and 7e-06 s⁻¹ in experiment [1]; 9.2e-06 s⁻¹ in experiment [2]; 5.4e-06 s⁻¹ in experiment [3]; 6.4e-06 s⁻¹ and 1.7e-05 s⁻¹ in experiment [4]. Further, the kon in experiment [1] is 410000 M⁻¹ s⁻¹ and 360000 M⁻¹ s⁻¹ and 430000 M⁻¹ s⁻¹ and 680000 M⁻¹ s⁻¹; in experiment [2] it was 220000 M⁻¹ s⁻¹ and 180000 M⁻¹ s⁻¹; in experiment [3], 360000 M⁻¹ s⁻¹ and 370000 M⁻¹ s⁻¹; in experiment [4] it was 270000 M⁻¹ s⁻¹ and 190000 M⁻¹ s⁻¹.

One may read the Kd as the free concentration of one partner at which half of the binding sites on the other are occupied at equilibrium, for simple one-to-one binding. One may read the koff as a measure of how fast the partners let go of each other. As usually defined, the kon is the second-order rate constant of association.
